Assay results from the supplement of paper PMC10724198.
± gives the standard deviation of the averaged measurements.

System: Saccharomyces cerevisiae
Assay: protein stability index of tFT-peptide fusion (C-terminal peptide) (PSI (0-1 scale)); higher = more stable (slower turnover)
Conditions: temperature: 30 C
Protocol: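 MPS profiling in S. cerevisiae of the yeast C-terminome library: the last 12 aa of each annotated ORF are fused to the C-terminus of a sfGFP-mCherry timer, after a GGGS linker. Cells are FACS-sorted into 8 mCherry/sfGFP bins and deep-sequenced. PSI runs from 0 (unstable) to 1 (stable); wild type and das1Δ backgrounds, two technical replicates each.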

[1] = genetic background: das1 deletion

Sequence	protein stability index [1]	protein stability index (genetic background: wild type)
RNQNSDRLNFQP [YBR138C C-terminal 12 aa]	0.705 ± 0.0061	0.675 ± 0.016
RPFYKRMFTKEK [HXT5 C-terminal 12 aa]	0.7313 ± 0.0058	0.732 ± 0.033
RPMPPIRGPKRR [SMD3 C-terminal 12 aa]	0.688 ± 0.017	0.724 ± 0.048
RPMQHMYINNFT [YAL026C-A C-terminal 12 aa]	0.71914 ± 0.00059	0.672 ± 0.011
RQLGSKQRKHRL [ECI1 C-terminal 12 aa]	0.786 ± 0.021	0.82 ± 0.026
RQSRERALGIKR [PRP22 C-terminal 12 aa]	0.6929 ± 0.0054	0.701 ± 0.036
RRCDDMLYYIQN [POP4 C-terminal 12 aa]	0.716 ± 0.021	0.662 ± 0.011
RRQMGIPTISQV [FHN1 C-terminal 12 aa]	0.681 ± 0.016	0.6838 ± 0.0048
RSDTKEPLALLS [VPS20 C-terminal 12 aa]	0.6784 ± 0.0067	0.646 ± 0.01
RSHSRKNSLSLL [SPO24 C-terminal 12 aa]	0.72 ± 0.021	0.734 ± 0.028
RTDPDRYSRLSV [ILT1 C-terminal 12 aa]	0.703 ± 0.027	0.7277 ± 0.0055
SCFSYSVGSKFT [YPR170W-A C-terminal 12 aa]	0.7068 ± 0.0063	0.703 ± 0.014
SDHCWDGCWWCR [AQY2 C-terminal 12 aa]	0.7424 ± 0.0017	0.765 ± 0.041
SEEKRRLAPADI [YOL019W-A C-terminal 12 aa]	0.68 ± 0.02	0.691 ± 0.024
SELKGFVDEVDL [TFC1 C-terminal 12 aa]	0.7183 ± 0.0033	0.721 ± 0.037
SESLSDSDLEIL [RAD24 C-terminal 12 aa]	0.7105 ± 0.0068	0.666 ± 0.0085
SFCYVSACGRTQ [YFL021C-A C-terminal 12 aa]	0.677 ± 0.0097	0.709 ± 0.018
SFFLRNFFPSLF [YDL159W-A C-terminal 12 aa]	0.756 ± 0.026	0.246 ± 0.022
SFPIASSTTQTS [NST1 C-terminal 12 aa]	0.696 ± 0.021	0.689 ± 0.0087
SFYDNSLQTWIV [RRT2 C-terminal 12 aa]	0.7484 ± 0.0042	0.752 ± 0.029
SGEAAEEAEDEE [RPS9B C-terminal 12 aa]	0.652 ± 0.023	0.664 ± 0.039

Sequence	protein stability index [1]	protein stability index (genetic background: wild type)
SGIKEFFDNYKS [ARO9 C-terminal 12 aa]	0.712 ± 0.027	0.716 ± 0.025
SGSGNSSKSNCC [SEC4 C-terminal 12 aa]	0.691 ± 0.025	0.674 ± 0.018
SHDMDFNNAGDF [HMS1 C-terminal 12 aa]	0.707 ± 0.03	0.7067 ± 0.0045
SHPTEQTEVSSQ [MHR1 C-terminal 12 aa]	0.697 ± 0.0079	0.68 ± 0.02
SICPAIRRKEDY [RDT1 C-terminal 12 aa]	0.699 ± 0.025	0.659 ± 0.025
SIPGITGRAQIS [ORM1 C-terminal 12 aa]	0.6983 ± 0.0014	0.6656 ± 0.0065
SIYDGTEEKIVY [DAL4 C-terminal 12 aa]	0.689 ± 0.018	0.705 ± 0.01
SKLGINSGLCTN [ESL1 C-terminal 12 aa]	0.683 ± 0.01	0.688 ± 0.03
SLCMEAGLVNEN [YCF1 C-terminal 12 aa]	0.6959 ± 0.0021	0.663 ± 0.037
SLDITEDWEVIF [ROT2 C-terminal 12 aa]	0.725 ± 0.023	0.7587 ± 0.0031
SLEKELISRGYR [CDC73 C-terminal 12 aa]	0.724 ± 0.0099	0.685 ± 0.02
SLKNYHNNTAQA [DBP6 C-terminal 12 aa]	0.688 ± 0.031	0.68 ± 0.0075
SLNRPAERGGNR [YNL143C C-terminal 12 aa]	0.69578 ± 0.00021	0.688 ± 0.041
SLPRQAGGRKKK [GLC7 C-terminal 12 aa]	0.715 ± 0.033	0.668 ± 0.052
SLQVILEFVSQH [SXM1 C-terminal 12 aa]	0.654 ± 0.029	0.6248 ± 0.0024
SLYPRFSGRCKP [DED81 C-terminal 12 aa]	0.703 ± 0.011	0.6745 ± 0.0059
SMVSCLLTLYVL [GTT3 C-terminal 12 aa]	0.4741 ± 0.0017	0.4796 ± 0.0038
SNENARNNNPYL [FLC2 C-terminal 12 aa]	0.6906 ± 0.0056	0.705 ± 0.043
SNFSRTLGLEFI [YGL041C C-terminal 12 aa]	0.711 ± 0.0098	0.716 ± 0.077
SNSSICFPLTIF [YKL136W C-terminal 12 aa]	0.6337 ± 0.0033	0.2798 ± 0.0007
SNSSKNRMNNYR [SPT6 C-terminal 12 aa]	0.702 ± 0.017	0.721 ± 0.034

Sequence	protein stability index [1]	protein stability index (genetic background: wild type)
SPISVDFSSYLS [NBP1 C-terminal 12 aa]	0.734 ± 0.015	0.72 ± 0.058
SRDYEETEYSVI [SPP381 C-terminal 12 aa]	0.709 ± 0.025	0.687 ± 0.062
SRRRPFIGPETV [YMR057C C-terminal 12 aa]	0.709 ± 0.037	0.703 ± 0.0072
SRVDEVVTKYSH [AAH1 C-terminal 12 aa]	0.7 ± 0.029	0.667 ± 0.028
SSANIDINSIAK [SPO22 C-terminal 12 aa]	0.7 ± 0.04	0.729 ± 0.11
SSASPEVDCRCG [YLR444C C-terminal 12 aa]	0.705 ± 0.0094	0.7312 ± 0.0057
SSFSLSLPRLNQ [SPT7 C-terminal 12 aa]	0.6893 ± 0.0022	0.675 ± 0.028
SSIQDLLSKLAN [RTT103 C-terminal 12 aa]	0.691 ± 0.02	0.7927 ± 0.0052
SSLPYDILPALL [YGL199C C-terminal 12 aa]	0.703 ± 0.004	0.6882 ± 0.0011
SSSSTSSSATKN [TPS1 C-terminal 12 aa]	0.703 ± 0.017	0.685 ± 0.047
STFSKPFSTISK [VHR2 C-terminal 12 aa]	0.6906 ± 0.0026	0.682 ± 0.059
STHGPGIVIDFA [MRPL1 C-terminal 12 aa]	0.724 ± 0.011	0.761 ± 0.089
STLAGEWRLIIA [YBR284W C-terminal 12 aa]	0.498 ± 0.0089	0.518 ± 0.019
SVSDPVKSEDSS [NCB2 C-terminal 12 aa]	0.68 ± 0.034	0.689 ± 0.033
SVYEHEHEKTFI [FUR4 C-terminal 12 aa]	0.7127 ± 0.0018	0.706 ± 0.0091
SWSGDNEAHRWT [NPT1 C-terminal 12 aa]	0.716 ± 0.023	0.686 ± 0.016
TAEEQEQSACQC [YPT6 C-terminal 12 aa]	0.6863 ± 0.0043	0.687 ± 0.021
TAESDDDEEDDE [TIF5 C-terminal 12 aa]	0.688 ± 0.026	0.709 ± 0.052
TATSSSIILSDK [SSN2 C-terminal 12 aa]	0.713 ± 0.032	0.665 ± 0.045
